The values that follow are results of earlier work, collected in PMC2996873.

pKd: −log10 of the molar value.

This data set deals with RANTES (Homo sapiens) (UniProt P13501).
UniProt P13501, sequence (P13501 27-91): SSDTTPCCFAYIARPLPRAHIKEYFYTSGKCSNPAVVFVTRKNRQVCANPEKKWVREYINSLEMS

For CCR1 (from UniProt P32246), the pKd is 6.34.

One may read the pKd as the Kd on a negative log10 scale, so that one unit is a factor of ten.
